Here are results for 1 protein from patent US6506595.

The target in series [1] is MWPmp20-(His)6-EGF-TEV-Somatostatin 28.

B1: TEV protease (GIBCO BRL) (protein)
chain: GESLFKGPRDYNPISSTICHLTNESDGHTTSLYGIGFGPFIITNKHLFRRNNGTLLVQSLHGVFKVKNTTTLQQHLIDGRDMIIIRMPKDFPPFPQKLKFREPQREERICLVTTNFQTKSMSSMVSDTSCTFPSSDGIFWKHWIQTKDGQCGSPLVSTRDGFIVGIHSASNFTNTNNYFTSVPKNFMELLTNQEAQQWVSGWRLNADSVLWGGHKVFMSKPEEPFQPVKEATQLMNELVYSQ
As for B1, the “cleavage of the fusion protein, shown by SDS-PAGE and Western blotting” value with MWPmp20-TEV-G-GH is “the mutant human growth hormone G-GH with extra Gly at the N-terminus was cleaved at the same position (as indicated by an arrow) as the commercially available human growth hormone”. In addition, the “cleavage of the fusion protein, shown by Western blotting” value in series [1] is on record as “somatostatin 28 was cleaved out with TEV protease”.
